Data: US20260266848A1, “COMPOSITIONS AND METHODS FOR DIAGNOSING AND TREATING DYSTONIA” (Duke University, priority 2023, published 2026)

Tests used:
WT MEF EVs = assay: Quantitative LC-MS/MS proteomics of EVs from ISRIB-treated WT MEF cultures; format: cell-based, mouse; design: key to ISRIB and DYT Parallel Direction / ISRIB and DYT Parallel Direction, Ctdsp1 / ISRIB and DYT Parallel Direction, Pcdh19 / ISRIB and DYT Parallel Direction, Tspan7 / ISRIB and DYT Parallel Direction, Myo1e / ISRIB and DYT Parallel Direction, Plpp3 / ISRIB and DYT Parallel Direction, Sh3bp4 / ISRIB and DYT Parallel Direction, Dnajc7 / ISRIB and DYT Parallel Direction, Drg1 / ISRIB and DYT Parallel Direction, Maea: YES = protein abundance effect similar to DYT/WT; settings: EV protein abundance; for WT + ISRIB/WT Cohen's d: ISRIB-treated WT vs WT; for ISRIB and DYT Parallel Direction: WT + ISRIB vs WT, direction compared with DYT/WT
DYT-TOR1A MEF EVs = assay: Quantitative LC-MS/MS proteomics of EVs from drug-treated DYT-TOR1A MEF cultures (ritonavir, salubrinal); format: cell-based, mouse; design: key to RTV Corrective Direction / RTV Corrective Direction, Grwd1 / RTV Corrective Direction, Srrm2 / RTV Corrective Direction, Rbm17 / RTV Corrective Direction, Dcaf8 / RTV Corrective Direction, Edil3 / RTV Corrective Direction, Timp3 / RTV Corrective Direction, Heatr3 / RTV Corrective Direction, Brd4 / RTV Corrective Direction, P3h4 / RTV Corrective Direction, Pacsin3 / RTV Corrective Direction, Naa50 / RTV Corrective Direction, Lpar6 / RTV Corrective Direction, Ndrg1 / RTV Corrective Direction, Kntc1 / RTV Corrective Direction, Cdk11b / RTV Corrective Direction, Sumo1 / RTV Corrective Direction, Lsm4 / RTV Corrective Direction, Hmga2 / RTV Corrective Direction, Cstf1 / RTV Corrective Direction, Tes / RTV Corrective Direction, Sbno1 / RTV Corrective Direction, Unc119b / RTV Corrective Direction, Cfdp1 / RTV Corrective Direction, Sec61b: YES = protein abundance effect opposite to DYT/WT; settings: EV protein abundance; for RTV Corrective Direction: DYT + RTV (ritonavir) vs DYT, direction compared with DYT/WT; for DYT + RTV/DYT Cohen's d: ritonavir (RTV)-treated DYT vs DYT

B1: Capg (protein, UniProt P24452 1-352, looked up)
Macrophage-capping protein: MYTPIPQSGSPFPASVQDPGLHIWRVEKLKPVPIARESHGIFFSGDSYLVLHNGPEEASHLHLWIGQQSSRDEQGACAVLAVHLNTLLGERPVQHREVQGNESDLFMSYFPRGLKYYREGGVESAFHKTTSGARGAAIRKLYQVKGKKNIRATERPLSWDSFNTGDCFILDLGQNIFAWCGGKSNILERNKARDLALAIRDSERQGKAQVEIITDGEEPAEMIQVLGPKPALKEGNPEEDITADQTRPNAQAAALYKVSDATGQMNLTKVADSSPFASELLIPDDCFVLDNGLCAQIYIWKGRKANEKERQAALQVADGFISRMRYSPNTQVEILPQGRESPIFKQFFKNWK
- WT + ISRIB/WT Cohen's d (WT MEF EVs): −0.61
- ISRIB and DYT Parallel Direction (WT MEF EVs): YES
- RTV Corrective Direction (DYT-TOR1A MEF EVs): YES
- DYT + RTV/DYT Cohen's d (DYT-TOR1A MEF EVs): 3.57

B2: Psmd1 (protein, UniProt Q3TXS7 1-953, looked up)
26S proteasome non-ATPase …: MITSAAGIISLLDEEEPQLKEFALHKLNAVVNDFWAEISESVDKIEVLYEDEGFRSRQFAALVASKVFYHLGAFEESLNYALGAGDLFNVNDNSEYVETIIAKCIDHYTKQCVENADLPEGEKKPIDQRLEGIVNKMFQRCLDDHKYKQAIGIALETRRLDVFEKTILESNDVPGMLAYSLKLCMSLMQNKQFRNKVLRVLVKIYMNLEKPDFINVCQCLIFLDDPQAVSDILEKLVKEDNLLMAYQICFDLYESASQQFLSSVIQNLRTVGTPIASVPGSTNTGTVPGSEKDSDPMETEEKTASAVAGKTPDASPEPKDQTLKMIKILSGEMAIELHLQFLIRNNNTDLMILKNTKDAVRNSVCHTATVIANSFMHCGTTSDQFLRDNLEWLARATNWAKFTATASLGVIHKGHEKEALQLMATYLPKDTSPGSAYQEGGGLYALGLIHANHGGDIIDYLLNQLKNASNDIVRHGGSLGLGLAAMGTARQDVYDLLKTNLYQDDAVTGEAAGLALGLVMLGSKNAQAIEDMVGYAQETQHEKILRGLAVGIALVMYGRMEEADALIESLCRDKDPILRRSGMYTVAMAYCGSGNNKAIRRLLHVAVSDVNDDVRRAAVESLGFILFRTPEQCPSVVSLLSESYNPHVRYGAAMALGICCAGTGNKEAINLLEPMTNDPVNYVRQGALIASALIMIQQTEITCPKVNQFRQLYSKVINDKHDDVMAKFGAILAQGILDAGGHNVTISLQSRTGHTHMPSVVGVLVFTQFWFWFPLSHFLSLAYTPTCVIGLNKDLKMPKVQYKSNCKPSTFAYPAPLEVPKEKEKEKVSTAVLSITAKAKKKEKEKEKKEEEKMEVDEAEKKEEKEKKKEPEPNFQLLDNPARVMPAQLKVLSMTETCRYQPFKPLSIGGIIILKDTSEDVEELVEPVAAHGPKIEEEEQEPEPPEPFEYIDD
- WT + ISRIB/WT Cohen's d (WT MEF EVs): −0.65
- ISRIB and DYT Parallel Direction (WT MEF EVs): YES
- RTV Corrective Direction (DYT-TOR1A MEF EVs): YES
- DYT + RTV/DYT Cohen's d (DYT-TOR1A MEF EVs): 4.33

B3: Add1 (protein, UniProt P35611 1-737, looked up)
Alpha-adducin: MNGDSRAAVVTSPPPTTAPHKERYFDRVDENNPEYLRERNMAPDLRQDFNMMEQKKRVSMILQSPAFCEELESMIQEQFKKGKNPTGLLALQQIADFMTTNVPNVYPAAPQGGMAALNMSLGMVTPVNDLRGSDSIAYDKGEKLLRCKLAAFYRLADLFGWSQLIYNHITTRVNSEQEHFLIVPFGLLYSEVTASSLVKINLQGDIVDRGSTNLGVNQAGFTLHSAIYAARPDVKCVVHIHTPAGAAVSAMKCGLLPISPEALSLGEVAYHDYHGILVDEEEKVLIQKNLGPKSKVLILRNHGLVSVGESVEEAFYYIHNLVVACEIQVRTLASAGGPDNLVLLNPEKYKAKSRSPGSPVGEGTGSPPKWQIGEQEFEALMRMLDNLGYRTGYPYRYPALREKSKKYSDVEVPASVTGYSFASDGDSGTCSPLRHSFQKQQREKTRWLNSGRGDEASEEGQNGSSPKSKTKWTKEDGHRTSTSAVPNLFVPLNTNPKEVQEMRNKIREQNLQDIKTAGPQSQVLCGVVMDRSLVQGELVTASKAIIEKEYQPHVIVSTTGPNPFTTLTDRELEEYRREVERKQKGSEENLDEAREQKEKSPPDQPAVPHPPPSTPIKLEEDLVPEPTTGDDSDAATFKPTLPDLSPDEPSEALGFPMLEKEEEAHRPPSPTEAPTEASPEPAPDPAPVAEEAAPSAVEEGAAADPGSDGSPGKSPSKKKKKFRTPSFLKKSKKKSDS
- WT + ISRIB/WT Cohen's d (WT MEF EVs): 0.00
- ISRIB and DYT Parallel Direction (WT MEF EVs): YES
- RTV Corrective Direction (DYT-TOR1A MEF EVs): YES
- DYT + RTV/DYT Cohen's d (DYT-TOR1A MEF EVs): 4.30

B4: Ddr2 (protein, UniProt Q62371 22-854, looked up)
Discoidin domain-containing …: KAQVNPAICRYPLGMSGGHIPDEDITASSQWSESTAAKYGRLDSEEGDGAWCPEIPVQPDDLKEFLQIDLRTLHFITLVGTQGRHAGGHGIEFAPMYKINYSRDGSRWISWRNRHGKQVLDGNSNPYDVFLKDLEPPIVARFVRLIPVTDHSMNVCMRVELYGCVWLDGLVSYNAPAGQQFVLPGGSIIYLNDSVYDGAVGYSMTEGLGQLTDGVSGLDDFTQTHEYHVWPGYDYVGWRNESATNGFIEIMFEFDRIRNFTTMKVHCNNMFAKGVKIFKEVQCYFRSEASEWEPTAVYFPLVLDDVNPSARFVTVPLHHRMASAIKCQYHFADTWMMFSEITFQSDAAMYNNSGALPTSPMAPTTYDPMLKVDDSNTRILIGCLVAIIFILLAIIVIILWRQFWQKMLEKASRRMLDDEMTVSLSLPSESSMFNNNRSSSPSEQESNSTYDRIFPLRPDYQEPSRLIRKLPEFAPGEEESGCSGVVKPAQPNGPEGVPHYAEADIVNLQGVTGGNTYCVPAVTMDLLSGKDVAVEEFPRKLLAFKEKLGEGQFGEVHLCEVEGMEKFKDKDFALDVSANQPVLVAVKMLRADANKNARNDFLKEIKIMSRLKDPNIIRLLAVCITEDPLCMITEYMENGDLNQFLSRHEPLSSCSSDATVSYANLKFMATQIASGMKYLSSLNFVHRDLATRNCLVGKNYTIKIADFGMSRNLYSGDYYRIQGRAVLPIRWMSWESILLGKFTTASDVWAFGVTLWETFTFCQEQPYSQLSDEQVIENTGEFFRDQGRQIYLPQPALCPDSVYKLMLSCWRRETKHRPSFQEIHLLLLQQGAE
- WT + ISRIB/WT Cohen's d (WT MEF EVs): −7.89
- ISRIB and DYT Parallel Direction (WT MEF EVs): YES
- RTV Corrective Direction (DYT-TOR1A MEF EVs): YES
- DYT + RTV/DYT Cohen's d (DYT-TOR1A MEF EVs): 0.93

B5: Mcm2 (protein, UniProt P97310 2-904, looked up)
DNA replication licensing …: AESSESLSASSPARQRRRISDPLTSSPGRSSRRADALTSSPGRDLPPFEDESEGLLGTEGPMEEEEDGEELIGDGMERDYRPIPELDVYEAEGLALDDEDVEELTASQREAAERTMRQRDREAGRGLGRMRRGLLYDSSEEDEERPARKRRHVERATEDGEEDEEMIESIENLEDLKGHSVREWVSMAGPRLEIHHRFKNFLRTHVDSHGHNVFKERISDMCKENRESLVVNYEDLAAREHVLAYFLPEAPAELLQIFDEAALEVVLAMYPKYDRITNHIHVRISHLPLVEELRSLRQLHLNQLIRTSGVVTSCTGVLPQLSMVKYNCSKCNFVLGPFCQSQNQEVKPGSCPECQSAGPFEINMEETIYQNYQRIRIQESPGKVAAGRLPRSKDAILLADLVDSCKPGDEIELTGIYHNNYDGSLNTANGFPVFATIILANHVAKKDNKVAVGELTDEDVKMITGLSKDQQIGEKIFASIAPSIYGHEDIKRGLALALFGGEPKNPGGKHKVRGDINVLLCGDPGTAKSQFLKYIEKVSSRAIFTTGQGASAVGLTAYVQRHPVSREWTLEAGALVLADRGVCLIDEFDKMNDQDRTSIHEAMEQQSISISKAGIVTSLQARCTVIAAANPIGGRYDPSLTFSENVDLTEPIISRFDVLCVVRDTVDPVQDEMLARFVVGSHVRHHPSNKKDEGLTNGGTLEPAMPNTYGVEPLPQEVLKKYIIYAKERVRPKLNQMDQDKVARMYSDLRKESMATGSIPITVRHIESMIRMAEAHARMHLRDYVMEDDVNMAIRVMMESFIDTQKFSVMRSMRKTFARYLSFRRDNNDLLLFILKQLVAEQVTYQRNRFGAQQDTIEIPEKDLMDKARQINIHNLSAFYDSDLFKFNKFSRDLKRKLILQQF
- WT + ISRIB/WT Cohen's d (WT MEF EVs): −2.10
- ISRIB and DYT Parallel Direction (WT MEF EVs): YES
- RTV Corrective Direction (DYT-TOR1A MEF EVs): YES
- DYT + RTV/DYT Cohen's d (DYT-TOR1A MEF EVs): 3.96

B6: Srp68 (protein, UniProt Q8BMA6 1-625, looked up)
Signal recognition particle …: MAAEKQIPGGGSGGGGSGSGGGGGGSGGGRSAGGDENKENERPSAGSKANKEFGDSLSLEILQIIKESQQQHGLRHGDFQRYRGYCSRRQRRLRKTLNFKMGNRHKFTGKKVTEELLTDNRYLLLVLMDAERAWSYAMQLKQEANTEPRKRFHLLSRLRKAVKHAEELERLCESNRVDAKTKLEAQAYTAYLSGMLRFEHQEWKSAIEAFNKCKTIYEKLASAFTEEQAVLYNQRVEEISPNIRYCAYNIGDQSAINELMQMRLRSGGTEGLLAEKLEALITQTRAKQAATMSEVEWRGRTVPVKIDKVRIFLLGLADNEAAIVQAESEETKERLFESMLSECRDALQAVREELKPDQKQRDYALDGESGKVSNLQYLHSYLTYIKLSTAIRRNENMAKGLHRALLQQQPEDDSKRSPRPQDLIRLYDIILQNLVELLQLPGLEEDRTFQKEISLKTLVFKAYRCFFIAQSYVLVKKWSEALVLYDRVLKYANEVSSHGGASKNSLKDLPDVQELITQVRSEKCSLQAAAILDANDSHQTDTSSQVKDNTPLVERFESFCLDPSLVTKQANLVHFPPGFQPIPCKPLFFDLALNHVAFPPLEDKLEQKTKSGLTGYIKGIFGFRS
- WT + ISRIB/WT Cohen's d (WT MEF EVs): −1.21
- ISRIB and DYT Parallel Direction (WT MEF EVs): YES
- RTV Corrective Direction (DYT-TOR1A MEF EVs): YES
- DYT + RTV/DYT Cohen's d (DYT-TOR1A MEF EVs): 2.70
